Results published in patent publication US20250325718A1 (Janssen / Centocor, published 2025).
Values belong to the binder of their own block, whether it stands above or below them.

Experiments:
[1] = molecular target: T1, Kallikrein related peptidase 2 (hK2), soluble human protein (human, UniProt P20151 19-261); assay: SPR, antibody captured on anti-Fc chip, soluble hK2 injected, 1:1 Langmuir fit
T1 construct: the stated signal peptide (residues 1-18) is left out, the pro-peptide (19-24) is kept; also called KLK2; kallikrein-2
Description: (§1) Affinity of selected hK2 antibodies for soluble hK2 was measured by surface plasmon resonance (SPR). […] Antibodies were captured on a sensor chip coated with an anti-Fc antibody followed by injection of soluble hK2 at various concentrations and specified association and dissociation times. Post dissociation, the surface was regenerated with an appropriate solution to prepare for the next interaction. Kinetic information (on-rate and off-rate constants) were extracted by fitting sensorgrams to the 1:1 Langmuir model. Binding affinity (KD) are reported as the ratio of rate constants (koff/kₒₙ).

[2] = molecular target: T1, Kallikrein related peptidase 2 (hK2), …; assay: SPR, sentence summing up Table 14
Description: as §1

T1 sequence (P20151 19-261): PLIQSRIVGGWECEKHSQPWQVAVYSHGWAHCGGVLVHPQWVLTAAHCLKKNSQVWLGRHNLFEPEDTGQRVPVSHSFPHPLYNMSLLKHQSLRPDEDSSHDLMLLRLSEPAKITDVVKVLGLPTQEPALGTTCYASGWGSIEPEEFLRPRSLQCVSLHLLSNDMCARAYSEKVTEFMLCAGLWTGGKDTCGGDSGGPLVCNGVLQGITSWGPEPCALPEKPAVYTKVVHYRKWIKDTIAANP

B2: KL2B53 (Fab) (Fab, V domains shown)
VH: EVQLVESGGGVVQPGRSLRLSCVASGFTFSSYDIHWVRQAPGKGLEWVAIISYDGSKKDYTDSVKGRFTISRDNSKNTLYLQMDSLRVEDSAVYSCARESGWSHYYYYGMDVWGQGTMVTVSS
VL: DIVMTQSPSSLSASVGDRVTITCRASQDISNYLAWYQQKPGKVPKFLIYAASTLHSGVPSRFSGSGSGTDFTLTISSLQPEDVATYYCQKYNSAPYTFGQGTRLEIK
Kd [1]: 0.08 nM
Kd [2]: < 0.5 nM

B3: KL2B242 (Fab) (Fab, V domains shown)
VH: QVQLQESGPGLVKPSETLSLTCTVSGGSISSYYWSWLRQPAGSGLEWIGRLYVSGFTNYNPSLKSRVTLSLDPSRNQLSLKLSSVTAADTAVYYCAGDSGNYWGWFDPWGQGTLVTVSS
VL: SYELTQPPSVSVSPGETASITCSGDQLGENYACWYQQKPGQSPVLVIYQDSKRPSGIPERFSGSNSGNTATLTISGTQALDEADYYCQAWDNSIVVFGGGTKLTVL
Kd [1]: 0.04 nM
Kd [2]: < 0.5 nM

B4: KL2B413 (scFv-LH-Fc) (Fc fusion)
scFv: EIVLTQSPSFLSASVGDRVTITCRASQGISSYLSWYQQKPGKAPKLLIYATSTLQSGVPSRFSGSGSGTEFTLTISSLQPEDFATYYCQQLNSYPRTFGQGTKVEIKGGSEGKSSGSGSESKSTGGSEVQLVESGGGLVQPGGSLRLSCAASGFTFSSYWMTWVRQAPGKGLEWVANIKQDGSERYYVDSVKGRFTISRDNAKNSLYLQMNSLRAEDTAVYYCARDQNYDILTGHYGMDVWGQGTTVTVSS
notes: scFv (VL-linker-VH) fused to an Fc; also called scFv18; KL2B413_LH; not shown: The hinge and Fc of the scFv-LH-Fc
Kd [1]: 34.3 nM

B6: KL2B30 (Fab) (Fab, V domains shown)
VH: QVQLQESGPGLVKPSETLSLTCTVSGGSISSYYWSWIRQPPGKGLEWIGYIYYSGSTNYNPSLKSRVTISVDTSKNQFSLKLSSVTAADTAVYYCAGTTIFGVVTPNFYYGMDVWGQGTTVTVSS
VL: DIQMTQSPSFLSASVGDRVTITCRASQGISSYLAWYQQKPGKAPKFLIYAASTLQSGVPSRFSGSGSGTEFTLTISSLQPEDFATYYCQQLNSYPLTFGGGTKVEIK
Kd [1]: 0.46 nM
Kd [2]: < 0.5 nM

B7: KL2B359 (scFv-LH-Fc) (Fc fusion)
scFv: EIVLTQSPATLSLSPGERATLSCRASESVEYFGTSLMHWYQQKPGQPPRLLIYAASNVESGIPARFSGSGSGTDFTLTISSVEPEDFAVYFCQQTRKVPYTFGGGTKVEIKGGSEGKSSGSGSESKSTGGSQVQLQESGPGLVKPSQTLSLTCTVSGNSITSDYAWNWIRQFPGKRLEWIGYISYSGSTTYNPSLKSRVTISRDTSKNQFSLKLSSVTAADTAVYYCATGYYYGSGFWGQGTLVTVSS
notes: scFv (VL-linker-VH) fused to an Fc; also called scFv20; KL2B359_LH; not shown: The hinge and Fc of the scFv-LH-Fc
Kd [1]: 0.7 to 1 nM

More lines, in order of falling Kd [1], values ahead:

Kd [1]: 0.078 nM
Kd [2]: < 0.5 nM
B1: KL2B467 (Fab) (Fab, V domains shown)
VH: QVQLVESGGGVVQPGRSLRLSCAASGFTFSYYGMHWVRQAPGKGLEWVAFISYDGSNKYYADSVKGRFTISRDNSKNTLYLQMNSLRAEDTAVYYCAHLPYSGSYWAFDYWGQGTQVTVSS
VL: QSVLTQPPSVSVAPGQTASITCGGDNIGSKSVHWYQQKPGQAPVLVVYDNSDRPSGIPERFSGSNSGTTATLTISRVEAGDEADYYCQVWDSSSDHPVVFGGGTKVTV

Kd [1]: 0.053 nM
Kd [2]: < 0.5 nM
B5: KL2B494 (Fab) (Fab, V domains shown)
VH: QVQLVESGGGLVQPGGSLRLSCAASGFTFSHYAMSWVRQAPGKGLEWVSTIGGSGGSTYYADSVKGRFTISRDNSKNTLYLQMNSLRAEDTAVYYCAKPHIVMVTALLYDGMDVWGQGTMVTVSS
VL: SSELTQPPSVSVAPGQTARITCGGNNIGSKSVHWYQQKPGQAPVLVVYDDSDRPSGIPERFSGSNSGNTATLTISRVEAGDEADYYCQVWDSSSDHVVFGGGTKLTVL
